For ten substances, OD410 results are on record in US20090239794A1, “HCV F PROTEIN AND USES THEREOF” (priority 2004, published 2009).

Test [1] has as its target Fmut8Δ11 protein (recombinant ARFP, truncated HCV-1a F protein lacking the first 11 N-terminal amino acids) (HCV-1a) (UniProt P0C045). The experiment in a line: ELISA, serum 1/100, day 14. On the technique in general: In an ELISA, binding on a coated surface is turned into a signal by an enzyme label.
Test [2] shares this target. The experiment in a line: ELISA, serum 1/800, day 29.
Test [3] shares this target. The experiment in a line: ELISA, serum 1/800, day 52.
For test [4] the target is unchanged. In words: ELISA, serum 1/50, day 29.
For test [5] the target is unchanged. In words: ELISA, serum 1/400, day 14.
For test [6] the target is unchanged. In words: ELISA, serum 1/50, day 14.
For test [7] the target is unchanged. In words: ELISA, serum 1/400, day 52.
Test [8] has the same target. In words: ELISA, serum 1/200, day 29.
Test [9] has the same target. The experiment in a line: ELISA, serum 1/200, day 14.
Test [10] has the same target. In words: ELISA, serum 1/800, day 14.
Test [11] shares this target. The experiment in a line: ELISA, serum 1/50, day 52.
Test [12] shares this target. The experiment in a line: ELISA, serum 1/1600, day 14.
Test [13] has the same target. In words: ELISA, serum 1/1600, day 52.
Test [14] has the same target. In words: ELISA, serum 1/100, day 52.
Test [15] shares this target. The experiment in a line: ELISA, serum 1/200, day 52.
For test [16] the target is unchanged. In words: ELISA, serum 1/100, day 29.
The target is the same in test [17]. The experiment in a line: ELISA, serum 1/1600, day 29.
Test [18] has the same target. The experiment in a line: ELISA, serum 1/400, day 29.

Regarding “serum of mouse 19, protocol 2, mock immunization (PBS) (antibody)”, the OD410 in test [1] worked out at 0.18; in test [2], 0.139; in test [3], 0.12; in test [4], 0.444; in test [5], 0.142; in test [6], 0.23. In addition, the OD410 in test [7] was determined as 0.135; in test [8], 0.184; in test [9], 0.144; in test [10], 0.13; in test [11], 0.313; in [12], 0.129. Moreover, the OD410 was 0.126 in [13]; 0.175 in [14]; 0.143 in [15]; 0.27 in test [16]; 0.119 in [17]; 0.54 in [18].

Turning to “serum of mouse 13, protocol 2, mock immunization (PBS) (antibody)”, the OD410 was determined as 0.177 in test [1]; 0.126 in test [2]; 0.123 in test [3]; 0.338 in test [4]; 0.143 in [5]; 0.288 in test [6]. Also, the OD410 in test [7] stood at 0.133; in test [8], 0.126; in [9], 0.151; in test [10] it was 0.169; in test [11] it was 0.474; in test [12], 0.142. Also, the OD410 came to 0.113 in [13]; 0.238 in test [14]; 0.172 in [15]; 0.161 in test [16]; 0.13 in test [17]; 0.121 in test [18].

For “serum of mouse 20, protocol 2, mock immunization (PBS) (antibody)”, the OD410 in [1] is 0.168; in test [2], 0.13; in [3], 0.127; in test [4], 0.51; in [5] it was 0.121; in test [6] it was 0.245. Besides, the OD410 came out at 0.141 in test [7]; 0.154 in test [8]; 0.138 in test [9]; 0.136 in test [10]; 0.247 in [11]; 0.118 in test [12]. Besides, the OD410 stood at 0.127 in test [13]; 0.182 in test [14]; 0.146 in test [15]; 0.181 in test [16]; 0.141 in test [17]; 0.133 in test [18].

“serum of mouse 12, protocol 2, mock immunization (PBS) (antibody)”: the OD410 is 0.302 in [1]; 0.114 in test [2]; 0.125 in test [3]; 0.246 in [4]; 0.17 in [5]; 0.442 in [6]. Besides, the OD410 in [7] came to 0.146; in [8], 0.127; in test [9] it was 0.215; in test [10] it was 0.16; in test [11], 0.516; in [12], 0.15. For the same substance, the OD410 in [13] was 0.12; in [14], 0.208; in test [15], 0.17; in test [16], 0.148; in test [17], 0.117; in [18] it was 0.114.

Turning to “serum of mouse 15, protocol 2, mock immunization (PBS) (antibody)”, the OD410 in test [1] was found to be 0.162; in test [2], 0.13; in test [3], 0.134; in test [4], 0.253; in test [5], 0.144; in [6], 0.229. Moreover, the OD410 in [7] is 0.177; in [8], 0.123; in test [9], 0.146; in test [10], 0.118; in [11], 0.376; in test [12] it was 0.116. Moreover, the OD410 came to 0.136 in [13]; 0.215 in test [14]; 0.151 in test [15]; 0.16 in test [16]; 0.122 in test [17]; 0.113 in [18].

Consider “serum of mouse 27, protocol 2, mock immunization (PBS) (antibody)”, for which the OD410 in [1] is 0.146; in test [2], 0.124; in test [3], 0.115; in test [4], 0.324; in test [5], 0.115; in test [6] it was 0.216. For the same substance, the OD410 in test [7] was found to be 0.12; in test [8], 0.14; in test [9], 0.113; in test [10] it was 0.113; in test [11], 0.201; in test [12], 0.112. Also, the OD410 in test [13] was determined as 0.116; in test [14], 0.155; in test [15] it was 0.136; in [16] it was 0.175; in test [17], 0.129; in [18], 0.13.

Turning to “serum of mouse 16, protocol 2, mock immunization (PBS) (antibody)”, the OD410 in test [1] worked out at 0.174; in test [2], 0.129; in test [3], 0.107; in test [4] it was 0.327; in test [5], 0.121; in test [6], 0.249. Moreover, the OD410 in test [7] turned out to be 0.134; in [8], 0.196; in test [9] it was 0.13; in test [10] it was 0.13; in [11] it was 0.231; in test [12], 0.123. For the same substance, the OD410 was 0.123 in test [13]; 0.194 in test [14]; 0.149 in [15]; 0.325 in test [16]; 0.116 in test [17]; 0.151 in [18].

Consider “serum of mouse 18, protocol 2, mock immunization (PBS) (antibody)”, for which the OD410 in [1] came out at 0.162; in test [2], 0.126; in test [3], 0.114; in test [4] it was 0.356; in [5], 0.127; in test [6], 0.228. The OD410 was 0.12 in test [7]; 0.166 in test [8]; 0.136 in [9]; 0.126 in test [10]; 0.279 in [11]; 0.122 in test [12]. Also, the OD410 in [13] is 0.134; in [14], 0.161; in test [15], 0.135; in test [16], 0.217; in test [17] it was 0.119; in [18] it was 0.134.

As for “serum of mouse 11, protocol 2, mock immunization (PBS) (antibody)”, the OD410 in test [1] amounted to 0.154; in test [2] it was 0.127; in [3], 0.118; in test [4] it was 0.307; in test [5], 0.116; in test [6], 0.108. Further, the OD410 was determined as 0.149 in [7]; 0.153 in test [8]; 0.135 in test [9]; 0.114 in [10]; 0.35 in test [11]; 0.113 in [12]. The OD410 was 0.117 in test [13]; 0.173 in test [14]; 0.133 in test [15]; 0.19 in test [16]; 0.123 in test [17]; 0.128 in test [18].

On to “serum of mouse 30, protocol 2, mock immunization (PBS) (antibody)”, for which the OD410 amounted to 0.126 in test [2]; 0.113 in [3]; 0.381 in [4]; 0.119 in test [7]; 0.157 in test [8]; 0.226 in test [11]. The OD410 in test [13] came out at 0.119; in test [14], 0.148; in test [15], 0.128; in test [16] it was 0.224; in test [17], 0.129; in test [18], 0.132.
